The experiment addresses CD36 (human) (UniProt P16671). The experiment is described as follows: cell-based or functional assay.

Chain of CD36 (human) (P16671 2-472): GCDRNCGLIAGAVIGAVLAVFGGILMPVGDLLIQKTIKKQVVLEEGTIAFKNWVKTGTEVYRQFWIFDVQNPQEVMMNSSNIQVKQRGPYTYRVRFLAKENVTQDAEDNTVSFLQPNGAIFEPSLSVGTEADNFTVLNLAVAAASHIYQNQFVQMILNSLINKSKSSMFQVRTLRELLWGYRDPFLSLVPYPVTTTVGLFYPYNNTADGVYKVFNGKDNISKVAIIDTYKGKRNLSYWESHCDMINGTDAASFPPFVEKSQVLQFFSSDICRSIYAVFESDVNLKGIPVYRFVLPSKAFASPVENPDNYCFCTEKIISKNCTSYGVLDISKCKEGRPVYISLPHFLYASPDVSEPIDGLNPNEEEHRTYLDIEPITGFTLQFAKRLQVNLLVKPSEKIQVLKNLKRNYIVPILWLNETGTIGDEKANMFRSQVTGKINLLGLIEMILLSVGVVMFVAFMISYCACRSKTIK

“recombinant human Tsp-1 (from UniProt P07996 19-1170) (ligand)”: the total cell number (Wst-1 assay) of patient-derived ovarian cancer cell lines treated with rhTsp-1 for up to 72 hours is < 50%.
